Assay [1] concerns the target T1, recombinant human VEGF165 (human, UniProt P15692 207-395).
T1 construct: also called hVEGF165
Put plainly: SPR (Biacore), antibody captured by anti-human Fc, hVEGF165 in solution. Here is the method:
Unreacted moieties on the biosensor surface were blocked with ethanolamine. For kinetic analysis, rate equations derived from the 1:1 Langmuir binding model were fitted simultaneously to multiple antigen injections (using global fit analysis) with the use of Scrubber 2 (BioLogic Software), Biacore Biaevaluation 4.0.1 software or Biacore T100 Evaluation software. Purified antibodies or DVD-Ig molecules were diluted in running buffer for capture across goat anti-human Fc reaction surfaces. Antibodies or DVD-Ig molecules to be captured as a ligand (1 μg/ml) were injected over reaction matrices at a flow rate of 10 μl/minute. During the assay, all measurements were referenced against the capture surface alone (i.e., with no captured antibody or DVD-Ig molecule). […] The equilibrium dissociation constant KD (M) of the reaction between antibodies and the target antigen was then calculated from the kinetic rate constants by the following formula: KD=Koff/Kₒₙ. Binding was recorded as a function of time and kinetic rate constants were calculated. In this assay, on-rates as fast as 10⁶M⁻¹s⁻¹ and off-rates as slow as 10⁻⁶ s⁻¹ could be measured.
Affinity matured humanized anti-VEGF antibodies were characterized for hVEGF₁₆₅ binding and potency. Binding affinity of these molecules to hVEGF₁₆₅ was determined by Biacore analysis (Example 1.1). Potency was evaluated in both cell-based and ELISA formats. The ability to block binding of hVEGF₁₆₅ to hVEGFR2 was evaluated in a competition ELISA (Example 1.4) Inhibition of hVEGF₁₆₅-induced cell proliferation was assessed using HMVEC-d cells (Example 1.10).
(Surface plasmon resonance follows binding to a sensor surface in real time, without labels.)

In a further assay the target is Human VEGF-A 165 (human, UniProt P15692 207-395). The assay is described as follows: cell-based or functional assay.
Human VEGF-A 165, sequence (P15692 other isoform, or with tags, fused parts or gaps limits assumed): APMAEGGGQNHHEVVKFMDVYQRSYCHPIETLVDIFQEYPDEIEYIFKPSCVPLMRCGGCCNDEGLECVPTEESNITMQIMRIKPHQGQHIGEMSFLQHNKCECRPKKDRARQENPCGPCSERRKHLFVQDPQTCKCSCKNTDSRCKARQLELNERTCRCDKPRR
The next assay deals with VEGF-A (UniProt P15692-4 27-191, limits assumed). The assay is described as follows: SPR (Biacore), DVD-Ig captured by anti-human Fc, antigen injected. The gist of the method: (§1)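 Antibodies or DVD-Ig molecules (1 μg/ml) were captured on an anti-human Fc CM5 surface, with antigen injected in solution and responses referenced to the capture-only surface. Rate constants came from a global 1:1 Langmuir fit, and KD = koff/kon.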
VEGF-A, sequence (P15692 other isoform, or with tags, fused parts or gaps limits assumed): as above

Another assay addresses PDGF-BB (UniProt P01127 82-190). The assay is described as above. The gist of the method: as §1

Some results are limits rather than exact numbers.

PDGF-BB, sequence (P01127 82-190): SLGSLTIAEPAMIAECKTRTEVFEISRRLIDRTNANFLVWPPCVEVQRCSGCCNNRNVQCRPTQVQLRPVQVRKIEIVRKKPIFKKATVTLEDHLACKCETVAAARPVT
T1 sequence (P15692 other isoform, or with tags, fused parts or gaps limits assumed): as the sequence (P15692 other isoform, or with tags, fused parts or gaps limits assumed) above

B1: CL-28815-IgG (EI version of parent mAb) (antibody, V domains shown)
VH: EVQLVQSGSELKKPGASVKVSCKASGYTFTNYGMYWVRQAPGQGLEWMGWINTETGKPTYADDFKGRFVFSLDTSVSTAYLQISSLKAEDTAVYYCARTNYYYRSYIFYFDYWGQGTMVTVSS
VL: EIVLTQSPATLSLSPGERATLSCRASESVSTHMHWYQQKPGQAPRLLIYGASNLESGVPARFSGSGSGTDFTLTISSLEPEDFAVYFCQQSWNDPFTFGQGTKLEIK
notes: IgG format
By Kd is commonly meant a measure of binding affinity in units of concentration. A word on the kon: it is the rate constant with which the complex forms. Consider B1, for which, in assay [1], the Kd is 0.012 nM and the on-rate (kon) came to 9.2e+06 M⁻¹ s⁻¹.

B2: hBEW-1E3.3 (antibody, V domains shown)
VH: EVQLVQSGAEVKKPGASVKVSCKASGYPFTNSGMYWVRQAPGQGLEWMGWINTEAGKPTYADDFKGRFTFTLDTSTSTAYLEIRSLRSDDTAVYYCARWGYISDNSYGWFDYWGQGTLVTVSS
VL: ETVLTQSPATLSLSPGERATLSCRASEGVYSYMHWYQQKPGQQPRLLIYKASNLASGVPARFSGSGSGTDFTLTISSLEPEDFAVYFCHQNWNDPLTFGQGTKLEIK
Consider B2, for which the “hVEGF165 IC50 (nM), HMVEC-d proliferation” value (from here on “hVEGF165 IC50 (nM)”) with Human VEGF-A 165 was determined as 0.205 nM.

B3: 3E2.1_GS_1E3.4 (PR-1613190) (bispecific antibody, human IgG1, kappa, L234A L235A)
heavy: EVQLVQSGAEVKKPGSSVKVSCKASGYTFTESYMYWVKQAPGQGLELIGRIDPEDGSTDYVEKFKNKATLTADKSTSTAYMELSSLRSEDTAVYFCARFGARSYFYPMDAWGQGTTVTVSSGGGGSGGGGSEIQLVQSGSELKKPGASVKVSCKASGYPFTNSGMYWVKQAPGQGLEYMGWINTEAGKPTYADDFKGRFVFSLDTSVSTAYLQISSLKAEDTAVYFCARWGYISDNSYGWFDYWGQGTLVTVSSASTKGPSVFPLAPSSKSTSGGTAALGCLVKDYFPEPVTVSWNSGALTSGVHTFPAVLQSSGLYSLSSVVTVPSSSLGTQTYICNVNHKPSNTKVDKKVEPKSCDKTHTCPPCPAPEAAGGPSVFLFPPKPKDTLMISRTPEVTCVVVDVSHEDPEVKFNWYVDGVEVHNAKTKPREEQYNSTYRVVSVLTVLHQDWLNGKEYKCKVSNKALPAPIEKTISKAKGQPREPQVYTLPPSREEMTKNQVSLTCLVKGFYPSDIAVEWESNGQPENNYKTTPPVLDSDGSFFLYSKLTVDKSRWQQGNVFSCSVMHEALHNAYTQKSLSLSPGK
light: ETVLTQSPATLSLSPGERATLSCRASESVSTLMHWYQQKPGQQPRLLIYGASNLESGVPARFSGSGSGTDFTLTISSLEPEDFAVYFCQQSWNDPWTFGGGTKVEIKGGSGGGGSGGATQLTQSPSSLSASVGDRVTISCRASEGVYSYMHWYQQKPGKQPKLLIYKASNLASGVPSRFSGSGSGTDFTLTISSLQPEDFATYFCHQNWNDPLTFGQGTKLEIKRTVAAPSVFIFPPSDEQLKSGTASVVCLLNNFYPREAKVQWKVDNALQSGNSQESVTEQDSKDSTYSLSSTLTLSKADYEKHKVYACEVTHQGLSSPVTKSFNRGEC
notes: DVD-Ig: outer hBFU-3E2.1 (PDGF), inner hBEW-1E3.4 (VEGF), linkers GS-H10 / GS-L10(dR); Human IgG1 L234A, L235A, H435A with kappa light chain
For the molecule B3, the Kd in the assay with VEGF-A was 0.26 nM; with PDGF-BB, not above 0.0053 nM. The kon with VEGF-A was 360000 M⁻¹ s⁻¹; in the assay with PDGF-BB it was not below 9e+07 M⁻¹ s⁻¹.

B4: hBEW-1B10.1 (antibody, V domains shown)
VH: EVQLVESGGGLVQPGGSLRLSCAASGFSFSKYDMAWFRQAPGKGLEWVASITTSGVGTYYRDSVKGRFTVSRDNAKSTLYLQMNSLRAEDTAVYYCARGYGAMDAWGQGTTVTVSS
VL: DIQMTQSPSSLSASVGDRVTITCKASQDIDDYLSWYQQKPGKSPKLVIYAATRLADGVPSRFSGSGSGTDYTLTISSLQPEDFATYYCLQSSSTPWTFGGGTKVEIK
For the molecule B4, the “hVEGF165 IC50 (nM)” value in the assay with Human VEGF-A 165 turned out to be 0.168 nM.

B5: hBEW-1B10.2 (antibody, V domains shown)
VH: EVQLVESGGGLVQPGGSLRLSCAASGFSFSKYDMAWFRQAPGKGLEWVASITTSGVGTYYRDSVKGRFTVSRDNAKNSLYLQMNSLRAEDTAVYYCARGYGAMDAWGQGTTVTVSS
VL: DIQMTQSPSSLSASVGDRVTITCKASQDIDDYLSWYQQKPGKSPKLVIYAATRLADGVPSRFSGSGSGTDYTLTISSLQPEDFATYYCLQSSSTPWTFGGGTKVEIK
As for B5, in the assay with Human VEGF-A 165, the “hVEGF165 IC50 (nM)” value stood at 0.222 nM.

B6: 3E2.1_GS_1B10.1 (PR-1612502) (bispecific antibody, human IgG1, kappa, L234A L235A)
heavy: EVQLVQSGAEVKKPGSSVKVSCKASGYTFTESYMYWVKQAPGQGLELIGRIDPEDGSTDYVEKFKNKATLTADKSTSTAYMELSSLRSEDTAVYFCARFGARSYFYPMDAWGQGTTVTVSSGGGGSGGGGSEVQLVESGGGLVQPGGSLRLSCAASGFSFSKYDMAWFRQAPGKGLEWVASITTSGVGTYYRDSVKGRFTVSRDNAKSTLYLQMNSLRAEDTAVYYCARGYGAMDAWGQGTTVTVSSASTKGPSVFPLAPSSKSTSGGTAALGCLVKDYFPEPVTVSWNSGALTSGVHTFPAVLQSSGLYSLSSVVTVPSSSLGTQTYICNVNHKPSNTKVDKKVEPKSCDKTHTCPPCPAPEAAGGPSVFLFPPKPKDTLMISRTPEVTCVVVDVSHEDPEVKFNWYVDGVEVHNAKTKPREEQYNSTYRVVSVLTVLHQDWLNGKEYKCKVSNKALPAPIEKTISKAKGQPREPQVYTLPPSREEMTKNQVSLTCLVKGFYPSDIAVEWESNGQPENNYKTTPPVLDSDGSFFLYSKLTVDKSRWQQGNVFSCSVMHEALHNAYTQKSLSLSPGK
light: ETVLTQSPATLSLSPGERATLSCRASESVSTLMHWYQQKPGQQPRLLIYGASNLESGVPARFSGSGSGTDFTLTISSLEPEDFAVYFCQQSWNDPWTFGGGTKVEIKGGSGGGGSGGDIQMTQSPSSLSASVGDRVTITCKASQDIDDYLSWYQQKPGKSPKLVIYAATRLADGVPSRFSGSGSGTDYTLTISSLQPEDFATYYCLQSSSTPWTFGGGTKVEIKRTVAAPSVFIFPPSDEQLKSGTASVVCLLNNFYPREAKVQWKVDNALQSGNSQESVTEQDSKDSTYSLSSTLTLSKADYEKHKVYACEVTHQGLSSPVTKSFNRGEC
notes: DVD-Ig: outer hBFU-3E2.1 (PDGF), inner hBEW-1B10.1 (VEGF), linkers GS-H10 / GS-L10(dR); Human IgG1 L234A, L235A, H435A with kappa light chain
Turning to B6, the Kd came to 0.32 nM with VEGF-A and 0.0018 nM with PDGF-BB. Moreover, the association rate constant (kon) in the assay with VEGF-A was 350000 M⁻¹ s⁻¹; with PDGF-BB, 8.4e+07 M⁻¹ s⁻¹.

B7: hBEW-5C3.1 (antibody, V domains shown)
VH: EIQLVQSGSELKKPGASVKVSCKASGYTFTNYGVYWVKQAPGQGLEYMGWINTETGKPTYADDFKGRFVFSLDTSVSTAYLQISSLKAEDTAVYYCARARQLDWFVYWGQGTLVTVSS
VL: DTVLTQSPATLSLSPGERATLSCRARESLTTSLSWFQQKPGQQPRLLIYGASKLESGVPARFSGSGSGTDFTLTISSLEPEDFAVYFCQQSWYDPPTFGGGTKVEIK
Regarding B7, the “hVEGF165 IC50 (nM)” value with Human VEGF-A 165 turned out to be 0.071 nM.

B8: hBEW-5C3.2 (antibody, V domains shown)
VH: EIQLVQSGAEVKKPGSSVKVSCKASGYTFTNYGVYWVKQAPGQGLEYMGWINTETGKPTYADDFKGRFTFTLDKSTSTAYMELSSLRSEDTAVYFCARARQLDWFVYWGQGTLVTVSS
VL: DTVLTQSPATLSLSPGERATLSCRARESLTTSLSWFQQKPGQQPRLLIYGASKLESGVPARFSGSGSGTDFTLTISSLEPEDFAVYFCQQSWYDPPTFGGGTKVEIK
Take B8: in the assay with Human VEGF-A 165, the “hVEGF165 IC50 (nM)” value was found to be 0.162 nM.

B9: hBEW-5C3.4 (antibody, V domains shown)
VH: EIQLVQSGSELKKPGASVKVSCKASGYTFTNYGVYWVKQAPGQGLEYMGWINTETGKPTYADDFKGRFVFSLDTSVSTAYLQISSLKAEDTAVYYCARARQLDWFVYWGQGTLVTVSS
VL: DTQLTQSPSSLSASVGDRVTISCRARESLTTSLSWFQQKPGKQPKLLIYGASKLESGVPSRFSGSGSGTDFTLTISSLQPEDFATYFCQQSWYDPPTFGGGTKVEIK
Consider B9, for which the “hVEGF165 IC50 (nM)” value with Human VEGF-A 165 amounted to 0.098 nM.

B10: hBEW-5C3.3 (antibody, V domains shown)
VH: EVQLVQSGAEVKKPGSSVKVSCKASGYTFTNYGVYWVRQAPGQGLEWMGWINTETGKPTYADDFKGRFTFTLDKSTSTAYMELSSLRSEDTAVYYCARARQLDWFVYWGQGTLVTVSS
VL: DTVLTQSPATLSLSPGERATLSCRARESLTTSLSWFQQKPGQQPRLLIYGASKLESGVPARFSGSGSGTDFTLTISSLEPEDFAVYFCQQSWYDPPTFGGGTKVEIK
In the case of B10, in the assay with Human VEGF-A 165, the “hVEGF165 IC50 (nM)” value was more than 2 nM.

Values taken from patent US20170015742A1 (published 2017).
